The values that follow come from US8198236B2, “Methods and compositions for the treatment of cancer” (Washington University, priority 2007, dated 2012).

The target in one test is LRP5 (Homo sapiens, UniProt O75197). Nature of the test: 125I-DKK1 binding to LRP5. Conditions: FIG. 10B. The procedure: In order to investigate the binding of Mesd polypeptide and an Mesd oligopeptide to either LRP5 or LRP6, binding assays were performed using ^125I-Mesd or ^125I-DKK1 (FIG. 10).
Test [1] has as its target T1, LRP6 (Homo sapiens, UniProt O75581).
T1 construct: expressed in transfected cells; host or cells: human HT1080 cells, retroviral vector pLNCX2
Nature of the test: LRP6-mediated 125I-DKK1 degradation in LRP6-transduced HT1080 cells. In kind it is cell-based. Conditions: 500 nM unlabeled, 4 hours at 37° C. The procedure: Ligand degradation was performed using the methods as described in Li, Y., et al., J. Biol. Chem. 275: 17187-17194, 2000. Briefly, 2×10^5 cells were seeded into 12-well dishes 1 day prior to assay. Pre-warmed assay buffer (minimal Eagle's medium containing 0.6% BSA with radioligand, 0.6 ml/well) was added to cell monolayers in the absence or the presence of unlabeled 500 nM RAP or 500 nM Mesd, followed by incubation for 4 hours at 37° C. Thereafter, the medium overlying the cell monolayers was removed and proteins were precipitated by addition of BSA to 10 mg/ml and trichloroacetic acid to 20%. […] After each time point, the plates were quickly placed on ice and the assay buffer was replaced with cold stop/strip solution. ^125I-anti-HA IgG that remained on the cell surface was stripped by incubation of cell monolayers with cold stop/strip solution for a total of 20 minutes (0.75 ml for 10 minutes, twice) and counted. Cell monolayers were then solubilized with low-SDS lysis buffer and counted. […] The fraction of internalized ^125I-anti-HA IgG after each time point was calculated and plotted.
RAP is a receptor antagonist for members of the LDLR family, and is able to inhibit the binding of most known ligands of the LDLR family members. […] Cell-surface-bound Myc-tagged DKK proteins were fixed and detected by immunofluorescence staining with anti-Myc antibody. […]

For test [2], the target named is T1, LRP6. Description: 125I-RAP binding to LRP6-transduced HT1080 cells. Conditions: 500 nM unlabeled Mesd. The method, then:
Cells (2×10^5) were seeded into 12-well dishes 1 day prior to assay. Ligand-binding buffer (minimal Eagle's medium containing 0.6% BSA with a different concentration of radioligand, 0.6 ml/well) was added to cell monolayers, in the absence or the presence of 500 nM unlabeled RAP or 500 nM unlabeled Mesd, followed with incubation for 0-4 hours at 4° C. Thereafter, overlying buffer containing unbound ligand was removed, and cell monolayers were washed and lysed in low-SDS lysis buffer (62.5 mM Tris-HCl pH 6.8, 0.2% SDS, 10% v/glycerol) and counted.
Receptor-associated protein (RAP) binds with high affinity to LRP, megalin, VLDLR and apoER2, and with a lower affinity to the LDLR (Bu, G., Int. Rev. Cytol. 209, 79-116. 2001). To determine whether RAP and Mesd bind to identical, overlapping, or different sites on the receptors, we performed binding and competition analysis of these two chaperones with HT1080 cells stably expressing LRP6.
In FIG. 8A, binding of ^125I-RAP (5 nM) to LRP6-transduced HT1080 cells and the control cells was carried out for 4 hours at 4° C. in the absence (total) or presence of 500 nM RAP, or 500 nM Mesd. In FIG. 8B, binding of^125I-Mesd (5 nM) to LRP6-transduced HT1080 cells was carried out for 2 hours at 4° C. in the absence (total) or presence of various concentrations of RAP or 500 nM Mesd. […]

T1 sequence (O75581 20-1613): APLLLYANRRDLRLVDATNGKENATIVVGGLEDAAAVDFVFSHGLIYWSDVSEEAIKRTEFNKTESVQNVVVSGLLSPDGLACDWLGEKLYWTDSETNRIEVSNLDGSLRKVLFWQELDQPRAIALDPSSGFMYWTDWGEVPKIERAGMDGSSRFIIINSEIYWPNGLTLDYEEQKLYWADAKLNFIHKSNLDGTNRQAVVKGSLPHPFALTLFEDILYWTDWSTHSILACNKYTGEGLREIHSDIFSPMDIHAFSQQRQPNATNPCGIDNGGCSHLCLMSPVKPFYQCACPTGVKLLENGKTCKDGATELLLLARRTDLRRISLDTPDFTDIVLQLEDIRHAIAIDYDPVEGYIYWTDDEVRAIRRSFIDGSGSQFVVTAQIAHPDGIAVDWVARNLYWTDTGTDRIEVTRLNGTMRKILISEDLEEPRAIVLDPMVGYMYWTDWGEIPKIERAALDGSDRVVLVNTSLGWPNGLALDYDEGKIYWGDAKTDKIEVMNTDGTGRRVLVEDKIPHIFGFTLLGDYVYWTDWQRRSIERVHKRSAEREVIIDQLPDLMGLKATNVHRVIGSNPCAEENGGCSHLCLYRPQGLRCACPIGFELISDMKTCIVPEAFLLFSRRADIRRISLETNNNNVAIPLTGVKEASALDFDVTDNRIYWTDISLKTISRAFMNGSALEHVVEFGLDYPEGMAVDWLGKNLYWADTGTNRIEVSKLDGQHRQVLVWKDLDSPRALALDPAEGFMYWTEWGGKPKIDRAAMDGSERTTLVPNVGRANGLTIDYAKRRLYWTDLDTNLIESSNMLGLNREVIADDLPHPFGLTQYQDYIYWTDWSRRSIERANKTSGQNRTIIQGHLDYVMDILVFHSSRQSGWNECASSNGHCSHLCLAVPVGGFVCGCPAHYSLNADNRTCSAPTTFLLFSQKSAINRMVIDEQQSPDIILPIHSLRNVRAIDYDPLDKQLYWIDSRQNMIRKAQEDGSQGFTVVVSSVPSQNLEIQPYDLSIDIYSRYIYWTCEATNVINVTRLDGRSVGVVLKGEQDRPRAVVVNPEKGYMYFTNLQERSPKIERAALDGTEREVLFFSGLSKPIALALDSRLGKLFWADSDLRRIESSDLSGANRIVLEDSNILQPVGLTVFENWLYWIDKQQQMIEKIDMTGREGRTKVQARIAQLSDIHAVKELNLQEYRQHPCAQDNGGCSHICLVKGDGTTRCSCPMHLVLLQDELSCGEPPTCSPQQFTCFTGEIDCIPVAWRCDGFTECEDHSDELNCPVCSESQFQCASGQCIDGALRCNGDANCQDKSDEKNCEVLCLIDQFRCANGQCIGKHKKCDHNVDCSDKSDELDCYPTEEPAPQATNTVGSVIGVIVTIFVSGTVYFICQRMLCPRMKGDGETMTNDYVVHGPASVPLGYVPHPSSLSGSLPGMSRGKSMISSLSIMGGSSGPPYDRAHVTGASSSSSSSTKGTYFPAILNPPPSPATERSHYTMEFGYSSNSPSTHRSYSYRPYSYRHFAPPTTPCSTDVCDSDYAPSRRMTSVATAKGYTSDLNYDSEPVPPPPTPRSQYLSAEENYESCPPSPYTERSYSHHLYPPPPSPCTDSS
Chain of LRP5 (O75197 32-1615): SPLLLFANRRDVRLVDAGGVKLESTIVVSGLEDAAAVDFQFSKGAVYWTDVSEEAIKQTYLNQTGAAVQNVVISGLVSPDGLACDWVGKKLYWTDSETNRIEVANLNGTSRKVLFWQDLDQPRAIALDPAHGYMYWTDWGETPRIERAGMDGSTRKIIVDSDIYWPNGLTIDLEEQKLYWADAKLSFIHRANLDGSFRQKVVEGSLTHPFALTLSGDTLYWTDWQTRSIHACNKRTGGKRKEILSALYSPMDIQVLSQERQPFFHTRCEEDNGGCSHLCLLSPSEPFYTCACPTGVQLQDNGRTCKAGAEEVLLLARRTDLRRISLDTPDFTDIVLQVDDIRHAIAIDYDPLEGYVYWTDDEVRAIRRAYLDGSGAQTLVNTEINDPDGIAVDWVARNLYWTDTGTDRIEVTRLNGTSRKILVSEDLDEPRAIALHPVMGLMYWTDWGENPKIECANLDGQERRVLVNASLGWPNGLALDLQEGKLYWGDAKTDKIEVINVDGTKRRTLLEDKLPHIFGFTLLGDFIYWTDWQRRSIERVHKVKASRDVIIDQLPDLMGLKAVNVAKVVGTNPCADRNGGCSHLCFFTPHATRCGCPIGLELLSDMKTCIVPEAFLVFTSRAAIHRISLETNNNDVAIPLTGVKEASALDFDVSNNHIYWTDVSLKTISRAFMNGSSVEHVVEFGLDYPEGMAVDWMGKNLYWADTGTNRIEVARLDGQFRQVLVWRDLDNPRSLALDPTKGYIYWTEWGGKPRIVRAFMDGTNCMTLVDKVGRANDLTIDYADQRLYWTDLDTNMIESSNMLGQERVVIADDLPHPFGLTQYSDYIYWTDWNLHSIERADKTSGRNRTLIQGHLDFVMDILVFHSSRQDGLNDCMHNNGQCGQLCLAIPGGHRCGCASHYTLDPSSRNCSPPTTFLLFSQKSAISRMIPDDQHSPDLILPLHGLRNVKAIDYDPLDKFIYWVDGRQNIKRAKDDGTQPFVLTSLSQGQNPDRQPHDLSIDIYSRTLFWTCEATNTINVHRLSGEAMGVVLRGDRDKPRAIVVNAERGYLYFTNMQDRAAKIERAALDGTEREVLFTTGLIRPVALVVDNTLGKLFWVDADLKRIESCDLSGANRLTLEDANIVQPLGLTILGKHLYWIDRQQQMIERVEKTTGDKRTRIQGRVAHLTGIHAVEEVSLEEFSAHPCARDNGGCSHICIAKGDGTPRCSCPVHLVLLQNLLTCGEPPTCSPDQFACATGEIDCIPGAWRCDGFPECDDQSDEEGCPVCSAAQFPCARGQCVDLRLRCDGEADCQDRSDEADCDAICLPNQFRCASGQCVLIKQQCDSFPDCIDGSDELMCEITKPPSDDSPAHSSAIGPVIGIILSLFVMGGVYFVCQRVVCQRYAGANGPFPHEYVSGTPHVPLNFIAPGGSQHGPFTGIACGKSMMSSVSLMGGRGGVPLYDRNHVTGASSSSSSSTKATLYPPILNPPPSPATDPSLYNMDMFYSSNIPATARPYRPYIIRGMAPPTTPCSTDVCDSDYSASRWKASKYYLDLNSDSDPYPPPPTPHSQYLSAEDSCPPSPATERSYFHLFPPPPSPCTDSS

B1: Mesd: Recombinant full-length mouse Mesd expressed in E. coli, N-terminal polyhistidine tail, lacking the signal peptide (protein)
chain: ADTPGEATPPPRKKKDIRDYNDADMARLLEQWEKDDDIEEGDLPEHKRPSAPIDFSKLDPGKPESILKMTKKGKTLMMFVTVSGNPTEKETEEITSLWQGSLFNANYDVQRFIVGSDRAIFMLRDGSYAWEIKDFLVSQDRCAEVTLEGQMYPGKGGGSKEKNKTKPEKAKKKEGDRKPRASKEDNRAGSRREDL
modifications: left off: small tags and cut ends
notes: Recombinant full-length mouse Mesd expressed in E. coli, N-terminal polyhistidine tail, lacking the signal peptide
Regarding B1, in the test with LRP5, the “Reduction in binding of 125I-DKK1 to LRP5” value is given as “small but significant reduction”. Further, the “Effect on increased 125I-DKK1 degradation of LRP6-expressing HT1080 cells” value with LRP6 [1] was “abolished”. In the test with LRP6 [2], the “Effect of excess unlabeled Mesd on the LRP6-dependent increase of 125I-RAP binding” value is given as “abolished”.
